Assay results: publication PMC9832874

Molecular target: T1, Human C-reactive protein, pentameric (pCRP) (human), P02741
T1 chain: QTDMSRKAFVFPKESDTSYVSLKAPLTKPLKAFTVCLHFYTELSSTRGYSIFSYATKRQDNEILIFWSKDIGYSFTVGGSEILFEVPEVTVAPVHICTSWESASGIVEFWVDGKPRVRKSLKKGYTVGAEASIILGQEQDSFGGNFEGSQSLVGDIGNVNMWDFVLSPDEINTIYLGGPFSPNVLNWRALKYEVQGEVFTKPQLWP
Test: crystal structure; pCRP at 8 mg/ml in 20 mM Tris, 140 mM NaCl, 2 mM CaCl2, co-crystallised with C10M (1:3 molar ratio pCRP:C10M); hanging drop at 20°C; well buffer 100 mM Tris pH 9, 10% PEG 4000, 50 mM LiCl, 200 mM MgCl2; oligomer seen: pentamer
Conditions: remark: other sources report otherwise

B1: Human C-reactive protein, pentameric (pCRP), P02741 19-224 (natural protein)
chain: QTDMSRKAFVFPKESDTSYVSLKAPLTKPLKAFTVCLHFYTELSSTRGYSIFSYATKRQDNEILIFWSKDIGYSFTVGGSEILFEVPEVTVAPVHICTSWESASGIVEFWVDGKPRVRKSLKKGYTVGAEASIILGQEQDSFGGNFEGSQSLVGDIGNVNMWDFVLSPDEINTIYLGGPFSPNVLNWRALKYEVQGEVFTKPQLWP
  stoichiometry N: 5
